Four substances from paper PMC5059767 can be followed below.

Test [1] concerns the target endogenous PKAC (HEK293T) (human (endogenous in HEK293T)) (UniProt P17612).
A further test addresses mCherry-ARHGAP36. As to the kind of experiment: FLIM-FRET (Venus-YFP donor fluorescence lifetime) in MDCK cells. Particulars: n≥4 each; mean±s.d.; donor alone (PKAC-YFP) est. 3.0 ns; parent: est. 2.4; read off a plot.
The target of test [2] is PKAC-YFP (mouse PKAC-Venus-YFP), in MDCK cells (UniProt P05132). The description is as above. The conditions noted are these: n≥4 each; mean±s.d.; donor alone (PKAC-YFP) est. 3.0 ns; parent: est. 2.4; read off a plot.

Chain of ARHGAP36-N2 (118–194) (Q6ZRI8 149-225): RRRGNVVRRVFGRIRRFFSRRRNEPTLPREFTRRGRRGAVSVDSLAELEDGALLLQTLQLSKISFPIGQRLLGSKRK

For the substance “ARHGAP36-N2 (118–194) (from UniProt Q6ZRI8-2 118-194) (domain or fragment)”, the reduction in mean FRET emission ratio of the PKA biosensor AKAR4-NES in HEK293T cells stimulated with Forskolin and IBMX in test [1] worked out at 25.1%.

Take “PKAC-YFP (mouse PKAC-Venus-YFP), in MDCK cells (from UniProt P05132) E127A; E170A; E230A”: in the test with mCherry-ARHGAP36, the response stood at 3 ns.

As to mCherry-ARHGAP36 (natural protein), the reduction in mean FRET emission ratio of the PKA biosensor AKAR4-NES in HEK293T cells stimulated with Forskolin and IBMX in test [1] is 25.7%.

Take mCherry-ARHGAP36 R153D; R154D; V157D: the response in test [2] came to 3 ns.
